{
  "source": "paper PMC12254369",
  "about": "“Small molecule disruption of RARα/NCoR1 interaction inhibits chaperone-mediated autophagy in cancer” (EMBO Molecular Medicine, 2025)",
  "molecules": {"B1": {"name": "FITC-SRC peptide (FITC-Ahx-RHKILHRLLQEGS) (peptide)", "peptide": "{FITC-Ahx}-RHKILHRLLQEGS", "notes": "source: synthetic peptide (GenScript, purity >95%)"}, "B2": {"name": "FITC-NCoR1 peptide (FITC-Ahx-RLITLADHICQIITQDFAR) (peptide)", "peptide": "{FITC-Ahx}-RLITLADHICQIITQDFAR", "notes": "peptide of nuclear receptor corepressor 1 (NCoR1); also called NCoR1 fluorescent peptide; source: synthetic peptide (GenScript, purity >95%)"}},
  "key": {"[1]": {"biological_target": "T1, His-tagged RARα LBD with FITC-SRC (Homo sapiens, UniProt P10276)", "T1 construct": "gene RARA; LBD residues 176-462 with His tag", "T1 sequence (P10276 176-462)": "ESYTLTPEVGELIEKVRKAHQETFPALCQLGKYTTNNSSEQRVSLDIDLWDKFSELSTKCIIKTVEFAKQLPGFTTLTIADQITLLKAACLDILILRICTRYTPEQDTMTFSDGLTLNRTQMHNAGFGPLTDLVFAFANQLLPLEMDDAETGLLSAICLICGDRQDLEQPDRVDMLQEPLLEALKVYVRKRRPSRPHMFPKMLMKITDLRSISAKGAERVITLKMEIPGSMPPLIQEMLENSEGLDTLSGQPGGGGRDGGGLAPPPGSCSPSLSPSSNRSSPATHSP", "assay": "TR-FRET coactivator peptide recruitment", "format": "binding", "conditions": "3 nM His-RARα LBD, 50 nM FITC-SRC, 5 mM DTT, pH 7.4, 1 h; agonist"}, "[2]": {"biological_target": "T2, Recombinant RARα LBD (ligand binding domain of human retinoic acid receptor alpha, residues 176-462, … (human, UniProt P10276 176-462))", "T2 construct": "The His tag is detected by the anti-6HIS Tb cryptate antibody in the TR-FRET assay; also called His-tagged RARα LBD; source: E. coli BL21(DE3), purified (Ni-NTA, Superdex 200 gel filtration); not shown: His tag, N-terminal, kept", "T2 sequence (looked up)": "T1 sequence (P10276 176-462)", "assay": "AlphaScreen or HTRF; TR-FRET: 3 nM His-tagged RARα LBD, 0.5 nM anti-6HIS Tb cryptate (donor), 50 nM FITC-SRC (acceptor); 1x PBS, 0.02% Pluronic F-127, 5 mM DTT, pH 7.4; 1 h; increasing concentrations of CIM7, ATRA or AM580", "conditions": "both partners purified"}, "[3]": {"biological_target": "T2, Recombinant RARα LBD (ligand binding …)", "assay": "fluorescence polarisation; RARα LBD serially diluted from 50 µM, 5 nM FITC-NCoR1 peptide; 20 mM HEPES, 150 mM NaCl, 5 mM DTT, pH 7.5; read at 1 h; with DMSO, 25 µM CIM7, 10 µM ATRA or AM580", "conditions": "both partners purified"}},
  "note": "Ends that are not written are not given here. * marks the point of attachment. FITC = O=C1OC2(c3ccc(O)cc3Oc3cc(O)ccc32)c2ccc(NC(=S)*)cc21; Ahx = NCCCCCC(=O)O",
  "data": [
    {"molecule": "CC1=C(/C=C/C(C)=C/C=C/C(C)=C/C(=O)O)C(C)(C)CCC1", "note": "[ATRA, All-trans retinoic acid]", "values": [
      {"measurement": "TR-FRET coactivator peptide recruitment", "setting": "[1]", "result": "rather enhance binding of the coactivator, SRC"}
    ]},
    {"molecule": "B1", "values": [
      {"measurement": "binding result", "setting": "[2]", "result": "binds"}
    ]},
    {"molecule": "B2", "values": [
      {"measurement": "binding result", "setting": "[3]", "result": "binds"}
    ]}
  ]
}
